Measured values from the supplement of paper PMC9170038.

Test system: MS2 coat protein
Assay: apparent KD of MS2 coat protein; designed switch direction (-1 OFF switch, 1 ON switch): -1; higher = weaker reporter binding
In short: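 The reported apparent KD is a per-design median over clusters, from curve fits of normalised cluster fluorescence. Protein titrations used SNAP-549-labelled MS2 coat protein, doubled from 0.7 or 1.5 nM to 3 µM, in Tris-HCl pH 7.5 buffer with KCl, MgCl2, BSA, DTT, tRNA and Tween-20, with no input, 200 uM small-molecule ligand, or an oligonucleotide input. The RNA switches were transcribed on Illumina chips by stalled E. coli RNA polymerase.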

[1] = Eterna round: R95, input ligand: microRNA oligo, concentration not stated
[2] = input ligand: microRNA oligo, concentration not stated

Sequence | apparent KD of MS2 coat protein [1] [µM] | apparent KD of MS2 coat protein (input ligand: FMN 200 uM) [µM] | apparent KD of MS2 coat protein (input ligand: none) [µM] | apparent KD of MS2 coat protein (Eterna round: R95, input ligand: FMN 200 uM) [µM] | apparent KD of MS2 coat protein (Eterna round: R95, input ligand: none) [µM] | apparent KD of MS2 coat protein [2] [µM]
UGUGUAACGGAGGAUAUAGGACUUCAACGAAGACUAGAAGGCCGAACAUGAGGAUCACCCAUGUGGUCCUCCGU [Dicesoqu] (puzzle: Exclusion 6) | 0.0132 | – | – | – | – | –
UGUGUACGAGGAUAUAGAUGGAAUGACAUGAGGAUCACCCAUGUGAUCGAUCUAUUGGGUUUAGAAGGUGUAUAUA [JR_Ex5_Sub047] (Eterna round: R97, puzzle: Exclusion 5) | – | 0.0277 | 0.0344 | – | – | –
UGUGUGAGACAGGAUAUGCUGGAUGAAAGGCAGGUAGAAGGGUCUACAUGAGGAUCACCCAUGUGGCCGGUUGG [Ex6 #73] (Eterna round: R97, puzzle: Exclusion 6) | – | 0.0206 | 0.0204 | – | – | –
UGUGUGAGACAGGAUAUGCUGGAUGUGAGGCGGGUAGAAGGGUCUACAUGAGGAUCACCCAUGUGGCCGGUUGG [Ex6 #70] (Eterna round: R97, puzzle: Exclusion 6) | – | 0.0194 | 0.0173 | – | – | –
UGUGUGUGAGGAUAUACAAUGGGCCCGGGAAACCGGGCCCUACAUGAGGAUCACCCAUGUAGAAGGCGCGCGCG [-39.6, -37.5 kcal A 24%, 0,6bis] (Eterna round: R97, puzzle: Exclusion 2) | – | 0.0472 | 0.0736 | – | – | –
UGUGUGUGAGGAUAUACAAUUGUGUGUGGAAACGCGCGCGUACAUGAGGAUCACCCAUGUAGAAGGCGCGCGCG [-30.7, -27.4 kcal A 24%, 6bis,6bis] (Eterna round: R97, puzzle: Exclusion 2) | – | 0.0184 | 0.0179 | – | – | –
UGUUAUAGAGGAUAUGCGUGAAAAUAGAUUCAUGGAAAUUUACAUGAGGAUCACCCAUGUAGAAGGCUGUGAUU [LRO-Excl2-15-mod 090 by JR] (Eterna round: R97, puzzle: Exclusion 2) | – | 0.0149 | 0.0147 | – | – | –
UGUUAUAGAGGAUAUGCGUGAAUAUAGAUUCAUGGAAAUUUACAUGAGGAUCACCCAUGUAGAAGGCUGUGUUU [LRO-Excl2-17-mod 090 by JR] (Eterna round: R97, puzzle: Exclusion 2) | – | 0.0146 | 0.0156 | – | – | –
UGUUCGUCAGGAUAUUCUACUUAUUACAUGAGGAUCACCCAUGUGUAUGUACAAGGGUGUGAAGAAGGGACUUGUU [LRO-Excl5-08-mod A17d by Omei] (Eterna round: R97, puzzle: Exclusion 5) | – | 0.245 | 0.885 | – | – | –
UGUUGGCGAGGAUAUACAUGAGGAUCACCCAUGUGAGAGAAAAAAGUGAGGAAGAAAAGUAGAAGGCGCUGACU [salish99_ex3_r3_044] (puzzle: Exclusion 3) | 0.044 | – | – | 0.254 | 0.0518 | –
UGUUGUCACGCAGGAUAUGUAUGAGGAUCACCCAUUAAUAAAUUUUAACCACGAGGAUCACCCGUGUAGAAGGGCGGGACAACA [pwkr exNG2 2xF5 1xFMN.14] (Eterna round: R96, puzzle: Exclusion NG 2) | – | 0.0306 | 0.0299 | – | – | 0.0201
UGUUGUCGCGCAGGAUAUGAGGAUCACCCAUAGAAGGAUAUCGAAAGAGAAGGUCUGAGGAUUACCCAGAAGGGCGGGACAACU [pwkr exNG2 2xF5 2xFMN.13] (Eterna round: R96, puzzle: Exclusion NG 2) | – | 0.807 | 0.137 | – | – | 0.133
UGUUGUCGCGCAGGAUAUGAGGAUCACCCAUAUAAGGAUAUCGAAAGAGAAGUUCUGAGGAUCACCCAGAAGGGCGGGACAACU [pwkr exNG2 2xF5 2xFMN.32] (Eterna round: R96, puzzle: Exclusion NG 2) | – | 0.389 | 0.0585 | – | – | 0.0526
UGUUGUCGCGCAGGAUAUGAGGAUCACCCAUAUAGAGGAUAUGAAAAGAAGGUUCUGAGGAUCACCCAGAAGGGCGGGACAACU [pwkr exNG2 2xF5 2xFMN.19] (Eterna round: R96, puzzle: Exclusion NG 2) | – | 0.384 | 0.0674 | – | – | 0.0487
UGUUGUCGCGCAGGAUAUGAGGAUCACCCAUAUCAGGAUAUCGAAAGAGAAGUUCUGAGGAUCACCCAGAAGGGCGGGACAACU [pwkr exNG2 2xF5 2xFMN.33] (Eterna round: R96, puzzle: Exclusion NG 2) | – | 0.342 | 0.0478 | – | – | 0.038
UGUUGUCGCGCAGGAUAUGCAUGAGGAUCACCCAUGCAACCACAUUUAACAUGAGGAUCACCCAUGUAGAAGGGCGGGACAACU [pwkr exNG2 2xF5 1xFMN.3] (Eterna round: R96, puzzle: Exclusion NG 2) | – | 0.089 | 0.0314 | – | – | 0.025

Sequence | apparent KD of MS2 coat protein [1] [µM] | apparent KD of MS2 coat protein (input ligand: FMN 200 uM) [µM] | apparent KD of MS2 coat protein (input ligand: none) [µM] | apparent KD of MS2 coat protein (Eterna round: R95, input ligand: FMN 200 uM) [µM] | apparent KD of MS2 coat protein (Eterna round: R95, input ligand: none) [µM] | apparent KD of MS2 coat protein [2] [µM]
UGUUGUCGCGCAGGAUAUUGUCAACAGGCAAUAGGAUAUCCGAAAGGAGAAGGAUCGCCAACAGGCGAGAAGGGCGGGACAACU [pwkr exNG2 2xF7 2xFMN.4] (Eterna round: R96, puzzle: Exclusion NG 2) | – | 0.0354 | 1.2 | – | – | 0.478
UGUUGUUACGUAGGAUAUUGUCAACAGGCAAUAGGAUAUGCGAAAGCAGAAGGAUCGCCAACAGGCGAGAAGGACGGGUUAACA [pwkr exNG2 2xF7 2xFMN.2] (Eterna round: R96, puzzle: Exclusion NG 2) | – | 0.849 | 0.134 | – | – | 0.771
UGUUGUUCAGGAUAUGAUGUAUAAUACAUGAGGAUCACCCAUGUAGAUCCUGAAUUAACAUCAGAAGGGAAUAUUG [salish99_ex5_r4_101] (Eterna round: R97, puzzle: Exclusion 5) | – | 0.019 | 0.017 | – | – | –
UGUUUGUCAGGAUAUGCUAGUGCUAGUGAAAGCUAGUGCUAGUAGAAGGGACAUGAGGAUCACCCAUGUGAACG [-27.1, -27 kcal, A 26%, 2bis-(ca)2] (Eterna round: R97, puzzle: Exclusion 4) | – | 0.117 | 0.0541 | – | – | –
UUAAAGGCGGAGGAUAUGUAGGCUUUCGAGUCGACAGAAGGCCGCACAUGAGGAUCACCCAUGUGGUCCUCCAA [EX6 A.20] (Eterna round: R97, puzzle: Exclusion 6) | – | 0.219 | 0.0518 | – | – | –
UUAAAUCAUGUAGGAUAUGCGUGGCAAAGCUAUGCAGAAGGACAUGAGGAUCACCCAUGUUCUAGCGUCUGCGUACAGAUGCUA [Mat - Exclusion NG 1 - Mod of JL - D77] (Eterna round: R96, puzzle: Exclusion NG 1) | – | 0.249 | 0.0426 | – | – | 0.0349
UUAAAUCAUGUAGGAUAUGCGUGGCGAAGCUAUGCAGAAGGACAUGAGGAUCACCCAUGUGCUUCCGUCUGAGAACAGACGGUA [Mat - Exclusion NG 1 - Mod of JL - D12] (Eterna round: R96, puzzle: Exclusion NG 1) | – | 0.0918 | 0.0931 | – | – | 0.0639
UUAAAUCAUGUAGGAUAUGCGUGGCGAAGCUAUGCAGAAGGACAUGAGGAUCACCCAUGUUCUUCCGUCUGCGUACAGACGGAA [Mat - Exclusion NG 1 - Mod of JL - D38] (Eterna round: R96, puzzle: Exclusion NG 1) | – | 0.284 | 0.0408 | – | – | 0.0337
UUAAAUCAUGUAGGAUAUGCGUGGCGAAGCUAUGCAGAAGGACAUGAGGAUCACCCAUGUUCUUCCGUCUGCGUACAGAUGGAA [JL ENG1 1.08] (Eterna round: R96, puzzle: Exclusion NG 1) | – | 0.271 | 0.0363 | – | – | 0.0338
UUAAAUCAUGUAGGAUAUGGAAGGCGAACCUAUCCAGAAGGACAUGAGGAUCACCCAUGUGCUGCGUUGUCCGUAGACAGCGCU [Ex NG1 #1] (Eterna round: R96, puzzle: Exclusion NG 1) | – | 0.114 | 0.0362 | – | – | 0.0295
UUAACAUGCUGGUGAUCAUACAUGAGGAUCACCCAUGUAACAAGCUUUUUGCUCGUCUUAUAAUUUAAGAUCACCAG [Stov1/7-A1] (Eterna round: R97, puzzle: Sensor, turn-off variant 1) | – | 0.017 | 0.0159 | – | – | –
UUAACAUGCUGGUGAUCAUACAUGAGGAUCACCCAUGUAACAAGCUUUUUGUUCGUCUUAUAAGAUUACUAGUAUGU [Stov1/10-B1] (Eterna round: R97, puzzle: Sensor, turn-off variant 1) | – | 0.0394 | 0.0594 | – | – | –
UUAAGUUCAGGAUAUGAUGAAUUAAACAUGAGGAUCACCCAUGUAGAUCCUGAAAUAACAUCAGAAGGGAAUAUUU [JL-ex5-4.51 Brourd mod] (Eterna round: R97, puzzle: Exclusion 5) | – | 0.057 | 0.0176 | – | – | –
UUAAUACAUGUAGGAUAUGCGUGGCGAAGCUAUGCAGAAGGACAUGAGGAUCACCCAUGUUCAUGCGUCCGCGUACGGAUGCAA [JL Eng1 1.21 mod 7] (Eterna round: R96, puzzle: Exclusion NG 1) | – | 0.0199 | 0.0149 | – | – | 0.0126
UUAAUGGCUGUGAGGAUAUCGGAUAGAUAGAUAUUCGAGAAGGUACAUGAGGAUCACCCAUGUGUGAUUAGAGA [Brourd's EX4 #64] (Eterna round: R97, puzzle: Brourd's mod of Exclusion 4) | – | 0.269 | 0.244 | – | – | –
UUAAUGUGAGGAUAUCAGGUGUGCUAGCGUACUGGUACAUCUGAGAAGGCACAUGAGGAUCACCCAUGUUCUUC [JL-ex4-3.30 Brourd mod] (puzzle: Exclusion 4) | 0.0325 | – | – | – | – | –
